# Data published in patent publication US20110076272A1, “THERAPEUTIC METHODS AND COMPOSITIONS” (priority 2009, published 2011).
# B1: AB0023: mouse anti-human LOXL2 monoclonal antibody; heavy chain variable region SEQ ID NO:1, light chain variable region SEQ ID NO:2 (antibody, listed as Mus musculus, V domains shown)
# VH: MEWSRVFIFLLSVTAGVHSQVQLQQSGAELVRPGTSVKVSCKASGYAFTYYLIEWVKQRPGQGLEWIGVINPGSGGTNYNEKFKGKATLTADKSSSTAYMQLSSLTSDDSAVYFCARNWMNFDYWGQGTTLTVSS
# VL: MRCLAEFLGLLVLWIPGAIGDIVMTQAAPSVSVTPGESVSISCRSSKSLLHSNGNTYLYWFLQRPGQSPQFLIYRMSNLASGVPDRFSGSGSGTAFTLRISRVEAEDVGVYYCMQHLEYPYTFGGGTKLEIK
# modifications: Heavy chain; Light chain
# Key:
# [1] = system: CCl4-induced liver fibrosis; experiment: CCl4-induced liver fibrosis; format: in vivo, mouse; settings: 30 mg/kg i.p. twice a week
# Method: Male BALB/c mice (10-12 weeks old) were obtained from Aragen Biosciences (Morgan Hill, Calif.). Mice were distributed into 4 groups. Mice in 3 of the groups were injected with CCl4 (Sigma-Aldrich, St. Louis, Mo.), and mice in the remaining group were injected with saline.
# CCl4 was intraperitoneally administered to mice at 1 ml/kg body weight (CCl4: mineral oil in 1:1 (v/v) ratio) twice weekly for 4 weeks. In the control group, 0.9% saline (saline:mineral oil in 1:1 (v/v) ratio) was administered intraperitoneally using the same dosing regimen.
# In the CCl4-treated groups, the first group was treated with AB0023 (diluted in PBS/0.01% Tween-20), the second group was treated with pep4 M64 (diluted in […]) and the third group was treated with vehicle (PBST). Antibodies and vehicle were injected intraperioneally at a dose of 30 mg/kg twice a week. The treatment started a day prior to the first administration of CCl4 and continued until the end of the study. The study was terminated after 4 weeks of CCl4 and antibody administration. Mice were euthanized and sacrificed humanely and the livers were harvested 96 hours after completion of dosing. The livers were snap-frozen for histological and immunohistochemical analyses.
# Ten fields (or areas or lobes) for each treatment regimen were randomly selected and stained with Sirius Red. The area used for scoring was 1.7 mm×1.3 mm and contained at least 8 portal triads.
# Triads and areas of complete bridging fibrosis were counted. […] The percentages from 10 fields (per treatment) were averaged and standard error was calculated.
# For each treatment, five fields were selected and stained with an anti-alpha-smooth muscle actin (aSMA) antibody. aSMA-positive signal in the porto-portal region (threshold area %) was analyzed by Metamorph (Molecular Devices, Downingtown, Pa.). aSMA-positive signal in sections from animals undergoing AB0023-treatment was compared to signal obtained in sections from animals that had been treated with vehicle (PBS).
# MDA-MB-231 cells = experiment: Disseminated bone metastasis model, MDA-MB-231 cells injected in the left ventricle; format: in vivo, mouse
# Method: The therapeutic consequences of inhibiting either LOXL2 or LOX were assessed in a model of disseminated bone metastasis. Specific antibodies targeting LOXL2 or LOX were used to treat mice injected in the left ventricle with ˜1 million labeled MDA-MB-231 cells. The breast tumor cell line MDA-MB-231 has been widely used as a model to study LOX, and expresses all 5 lysyl oxidase-type enzymes (FIG. 11, panel A). The ability of LOXL2 inhibitory antibody AB0023 to reduce tumor burden was compared to LOX-specific antibody M64, which is a monoclonal antibody targeting the same peptide sequence in the LOX enzymatic domain previously described as generating an inhibitory polyclonal antiserum.
# HFF cells = experiment: Transwell co-culture of HFF cells with LOXL2-secreting tumor cell lines; format: cell-based, human; settings: 72 hours co-culture
# [2] = Repeat-dose tolerability in mice; settings: 50 mg/kg twice per week for 14 weeks
# [3] = system: MDA-MB-435 established primary tumors; experiment: MDA-MB-435 established primary tumor xenograft model; format: in vivo, mouse; parameters: reduction in activated TAFs assessed by aSMA signal / reduction in VEGF signal versus vehicle-treated tumors / reduction in SDF-1/CXCL12 signal / reduction in LOXL2 signal: concentration or dose not given beside the values
# Method: To provide growing tumor tissue stock for subsequent orthotopic implantation, five- to six-week-old nude mice (NCr nu/nu) were injected subcutaneously with 2×10^6 MDA-MB-435-GFP cells (Anticancer, Inc., San Diego, Calif.) on the right flank. For this purpose, cultures of MDA-MB-435-GFP cells were harvested and dissociated by trypsinization, washed three times with cold serum-containing medium, and then kept on ice until injection. Cells were injected into the subcutaneous space of the flank of the animal in a total volume of 0.1 ml, within 30 min of harvesting. The nude mice were sacrificed to harvest tumor tissue 4 to 6 weeks after tumor cell injection for surgical orthotopic implantation (SOI) of tumor fragments.
# Tumor pieces (˜1 mm^3), extracted from subcutaneously-growing GFP-expressing breast tumors, were implanted by surgical orthotopic implantation (SOI) on the breast of female nude mice (NCr nu/nu). Treatments with AB0023 (anti-LOXL2 monoclonal antibody), M64 (anti-LOX monoclonal antibody) and vehicle (all via intraperitoneal injection) and with Taxotere (by intravenous injection) were initiated when the average primary tumor volume reached 75 mm^3. Mice were administered the antibodies at a dose of 30 mg/kg twice a week for 28 days and Taxotere, at 10 mg/kg, was administered once a week for 3 weeks.
# Body weight and tumor size were recorded weekly. At the conclusion of the study, mice were sacrificed by cervical dislocation after being anesthetized with carbon dioxide. Primary breast tumors were imaged, harvested, cut in half symmetrically and snap-frozen for histological and immunohistochemical analyses.
# The solutions used for the immunohistochemistry (IHC) protocols were obtained from Biocare Medical (Concord, Calif.) unless otherwise stated. All procedures were performed at room temperature. Slides were fixed with 4% PFA for 10 minutes and were subsequently treated with Peroxidazed-1 (Biocare Medical, Concord, Calif.) for 5 minutes. Then, the slides were background blocked with SNIPER (Biocare Medical, Concord, Calif.) for 10 minutes. Primary antibody (2-5 ug/ml final concentration) was diluted in Da Vinci Green Universal Diluent and applied to slides for 30 minutes. Slides were then rinsed in PBS-Tween-20. The Mach2 polymer kit was used for antigen detection by adding rabbit probe for 30 minutes. DAB chromagen was added to the slides for 3-5 minutes, then slides were rinsed once with deionized water. The slides were then counter-stained with hematoxylin, followed by dehydration with graded alcohol. The slides were mounted with entellan mounting medium (Electron Microscopy Sciences, Hatfield, Pa.).
# [4] = antibodies 30 mg/kg i.p. twice a week
# [5] = tissue-based ELISA, fibroblasts and tumor cells
molecule,measurement,setting,value
B1,aSMA positive myofibroblasts in porto-portal septa,[1],substantial reduction
same,mortality resulting from injection with CCl4 (survival),[1]; AB0023 p=0.0029 log rank,prevented
same,bridging fibrosis in livers,"[1]; Sirius Red, AB0023 p=0.002, M64 p=0.127",significantly inhibited
same,"reduction in tumor cell burden in the femurs, by median value","MDA-MB-231 cells; day 28, p=0.0021",127 fold
same,"reduction in tumor cell burden in total ventral bone, by median value","MDA-MB-231 cells; day 28, p=0.0197",28 fold
same,survival,"MDA-MB-231 cells; separate study, 30 mg/kg AB0023 twice weekly in combination with 5 mg/kg Paclitaxel once per week, p=0.025",significant survival benefit
same,reduction in VEGF protein expression,HFF cells,39-46%
same,reduction in α-SMA levels,HFF cells,41%
same,relative decrease in pSMAD2 phosphorylation,HFF cells,56-94%
same,tolerability,[2],well-tolerated
same,abundance of fibroblasts in tumors versus vehicle,[3]; H&E staining and other markers,less abundant overall
same,necrosis in tumors,"[3]; H&E, TNF-α IHC",significant regions of necrosis
same,reduction in LOXL2 signal,[3]; IHC of tumors,55%
same,reduction in SDF-1/CXCL12 signal,[3]; IHC of tumors,80%
same,reduction in VEGF signal versus vehicle-treated tumors,[3]; IHC of tumors,76%
same,decrease in tumor volume at week 3,[3]; [4],45%
same,decrease in tumor volume at week 5,[3]; [4],33%
same,levels of Beclin-1 (autophagy) in tumor cells,"[3]; mouse, in vivo",increased
same,"pyknosis, reduced viability of tumor cells","[3]; mouse, in vivo",pyknosis and increased cytoplasmic condensation of nuclei
same,levels of TGF-β1,[3]; [5],reduced
same,levels of phosphorylated SMAD2,[3]; [5],reduced
same,levels of connective tissue growth factor (CTGF),[3]; tumor tissue,reduced
same,"reduction in Sirius red staining (crosslinked collagen, desmoplasia)",[3]; tumors harvested at day 39,61%
same,reduction in activated TAFs assessed by aSMA signal,[3]; tumors harvested at day 39,88%
same,"reduction in tumor vasculature, CD31 signal",[3]; tumors harvested at day 39,74%
